{"source": "paper doi:10.1101/2020.07.06.190884", "key": {"[1]": {"target": "His-tagged PrgU (Enterococcus faecalis (plasmid pCF10))", "test": "SEC-MALS"}, "[2]": {"target": "His-tagged PrgU (Enterococcus faecalis (plasmid pCF10))", "test": "GEMMA"}}, "data": [{"substance": "His-tagged PrgU (natural protein)", "values": [{"measurement": "stoichiometry N", "setting": "[1]", "value": 2}, {"measurement": "stoichiometry N", "setting": "[2]", "value": 2}]}]}
